Data as given in IntAct's records for PubMed 24019758.

B1: Transcription factor p65 (Mus musculus), Q04207 (parent)
chain: MDDLFPLIFPSEPAQASGPYVEIIEQPKQRGMRFRYKCEGRSAGSIPGERSTDTTKTHPTIKINGYTGPGTVRISLVTKDPPHRPHPHELVGKDCRDGYYEADLCPDRSIHSFQNLGIQCVKKRDLEQAISQRIQTNNNPFHVPIEEQRGDYDLNAVRLCFQVTVRDPAGRPLLLTPVLSHPIFDNRAPNTAELKICRVNRNSGSCLGGDEIFLLCDKVQKEDIEVYFTGPGWEARGSFSQADVHRQVAIVFRTPPYADPSLQAPVRVSMQLRRPSDRELSEPMEFQYLPDTDDRHRIEEKRKRTYETFKSIMKKSPFNGPTEPRPPTRRIAVPTRNSTSVPKPAPQPYTFPASLSTINFDEFSPMLLPSGQISNQALALAPSSAPVLAQTMVPSSAMVPLAQPPAPAPVLTPGPPQSLSAPVPKSTQAGEGTLSEALLHLQFDADEDLGALLGNSTDPGVFTDLASVDNSEFQQLLNQGVSMSHSTAEPMLMEYPEAITRLVTGSQRPPDPAPTPLGTSGLPNGLSGDEDFSSIADMDFSALLSQISS

Tests used:
[1] = variants of: B1; conditions: with cbp_mouse Crebbp
[2] = variants of: B1; conditions: with cbp_mouse Crebbp; remark: listed apart in the source
[3] = variants of: B1; conditions: with cbp_mouse Crebbp; remark: listed apart in the source
[4] = variants of: B1; conditions: with ep300_mouse Ep300, B2RWS6
Chain of ep300_mouse Ep300, B2RWS6 (B2RWS6 whole entry): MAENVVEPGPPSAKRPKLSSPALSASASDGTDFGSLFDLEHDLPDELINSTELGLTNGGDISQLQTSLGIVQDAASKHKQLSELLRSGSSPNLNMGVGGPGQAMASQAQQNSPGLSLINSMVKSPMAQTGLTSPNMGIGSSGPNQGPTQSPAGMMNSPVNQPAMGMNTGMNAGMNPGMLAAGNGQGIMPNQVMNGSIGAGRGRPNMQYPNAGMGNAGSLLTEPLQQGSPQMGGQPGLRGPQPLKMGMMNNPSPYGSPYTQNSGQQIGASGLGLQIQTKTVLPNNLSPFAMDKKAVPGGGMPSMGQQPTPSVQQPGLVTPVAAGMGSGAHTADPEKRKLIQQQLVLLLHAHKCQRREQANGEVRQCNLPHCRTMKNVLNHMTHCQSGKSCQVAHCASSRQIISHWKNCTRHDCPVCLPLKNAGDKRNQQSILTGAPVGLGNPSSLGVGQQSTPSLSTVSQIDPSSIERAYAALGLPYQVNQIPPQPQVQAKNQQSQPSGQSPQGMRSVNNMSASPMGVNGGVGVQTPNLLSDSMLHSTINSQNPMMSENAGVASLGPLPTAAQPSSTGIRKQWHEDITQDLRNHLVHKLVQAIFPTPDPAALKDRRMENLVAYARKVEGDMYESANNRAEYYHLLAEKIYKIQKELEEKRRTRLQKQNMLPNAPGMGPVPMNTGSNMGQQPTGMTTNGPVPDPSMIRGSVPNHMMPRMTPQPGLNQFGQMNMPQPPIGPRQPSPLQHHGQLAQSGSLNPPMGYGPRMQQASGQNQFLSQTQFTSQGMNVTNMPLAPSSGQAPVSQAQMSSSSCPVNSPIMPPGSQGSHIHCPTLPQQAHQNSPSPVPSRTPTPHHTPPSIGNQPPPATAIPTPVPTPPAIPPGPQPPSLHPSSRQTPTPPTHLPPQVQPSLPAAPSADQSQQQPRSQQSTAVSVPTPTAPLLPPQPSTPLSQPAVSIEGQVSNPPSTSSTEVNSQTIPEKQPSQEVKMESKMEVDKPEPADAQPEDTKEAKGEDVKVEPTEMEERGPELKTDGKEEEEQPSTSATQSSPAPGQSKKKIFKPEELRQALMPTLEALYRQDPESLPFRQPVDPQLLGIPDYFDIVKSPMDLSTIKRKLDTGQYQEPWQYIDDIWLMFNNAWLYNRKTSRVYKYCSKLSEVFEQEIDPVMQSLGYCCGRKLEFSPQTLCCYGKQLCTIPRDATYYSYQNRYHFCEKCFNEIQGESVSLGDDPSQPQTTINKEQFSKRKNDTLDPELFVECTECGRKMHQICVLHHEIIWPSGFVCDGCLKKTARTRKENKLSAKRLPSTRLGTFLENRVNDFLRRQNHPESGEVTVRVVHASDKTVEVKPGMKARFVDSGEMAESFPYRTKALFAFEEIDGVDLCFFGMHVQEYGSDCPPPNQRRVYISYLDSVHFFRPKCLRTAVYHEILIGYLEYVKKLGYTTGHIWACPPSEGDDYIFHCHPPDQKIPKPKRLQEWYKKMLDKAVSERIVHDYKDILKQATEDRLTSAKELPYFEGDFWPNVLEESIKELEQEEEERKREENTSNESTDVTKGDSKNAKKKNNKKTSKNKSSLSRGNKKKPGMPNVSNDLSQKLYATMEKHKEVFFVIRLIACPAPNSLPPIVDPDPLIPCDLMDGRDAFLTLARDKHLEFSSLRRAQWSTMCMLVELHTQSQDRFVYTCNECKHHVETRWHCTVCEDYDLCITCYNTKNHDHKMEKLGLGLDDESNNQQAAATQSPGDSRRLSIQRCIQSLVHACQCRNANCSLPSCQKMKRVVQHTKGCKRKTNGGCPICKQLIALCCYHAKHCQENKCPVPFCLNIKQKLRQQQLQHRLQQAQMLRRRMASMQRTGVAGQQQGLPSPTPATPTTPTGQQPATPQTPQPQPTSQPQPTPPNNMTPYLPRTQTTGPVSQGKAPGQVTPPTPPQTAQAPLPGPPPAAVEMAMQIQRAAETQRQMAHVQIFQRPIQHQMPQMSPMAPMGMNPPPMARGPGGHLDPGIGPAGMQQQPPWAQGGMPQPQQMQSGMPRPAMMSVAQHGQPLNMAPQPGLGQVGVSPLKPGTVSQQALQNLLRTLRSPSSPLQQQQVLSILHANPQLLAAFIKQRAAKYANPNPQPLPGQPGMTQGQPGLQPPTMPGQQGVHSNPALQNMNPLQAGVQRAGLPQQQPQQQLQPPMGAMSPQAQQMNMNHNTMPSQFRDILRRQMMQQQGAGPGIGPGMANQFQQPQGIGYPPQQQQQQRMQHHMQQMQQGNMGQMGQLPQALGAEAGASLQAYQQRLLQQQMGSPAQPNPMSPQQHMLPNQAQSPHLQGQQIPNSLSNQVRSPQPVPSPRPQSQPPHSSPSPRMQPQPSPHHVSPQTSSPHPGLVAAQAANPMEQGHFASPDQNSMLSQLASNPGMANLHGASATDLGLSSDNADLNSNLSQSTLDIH

[5] = variants of: B1; conditions: with cbp_mouse Crebbp; remark: listed apart in the source

| effect of a mutation on the interaction [1] | effect of a mutation on the interaction [2] | effect of a mutation on the interaction [3] | effect of a mutation on the interaction [4] | effect of a mutation on the interaction [5] | Variant |
| --- | --- | --- | --- | --- | --- |
| disrupting interaction strength | disrupting interaction strength | decreasing interaction strength | decreasing interaction strength | – | L449A;F473A |
| – | disrupting interaction strength | – | – | decreasing interaction strength | L465A |
| – | disrupting interaction strength | – | – | decreasing interaction strength | L449A |
| – | – | decreasing interaction strength | decreasing interaction strength | – | S467A |
| disrupting interaction strength | – | decreasing interaction strength | – | – | L449A;S467A;F473A |
| – | disrupting interaction strength | – | – | – | F473A |
| – | – | decreasing interaction strength | decreasing interaction strength | – | S276A |
